Laboratory results reported in PMC9258321 (2022).
Read-outs that look alike come from different tables or passages of the source. Ends that are not written are not given here.

B1: drp3, minor oxidized product (peptide)
chain: GCPPCASGCSPETGEFCWREDDCPPC
modifications: disulfide (positions not given here); also: oxidized (disulfides), pairing of this isomer not given here

Assays:
[1] = target: Kelch domain of Keap1; assay: SPR
[2] = target: Kelch domain of Keap1; assay: SPR; remark: listed apart in the source

Chain of Kelch domain of Keap1 (chain, as listed by the source): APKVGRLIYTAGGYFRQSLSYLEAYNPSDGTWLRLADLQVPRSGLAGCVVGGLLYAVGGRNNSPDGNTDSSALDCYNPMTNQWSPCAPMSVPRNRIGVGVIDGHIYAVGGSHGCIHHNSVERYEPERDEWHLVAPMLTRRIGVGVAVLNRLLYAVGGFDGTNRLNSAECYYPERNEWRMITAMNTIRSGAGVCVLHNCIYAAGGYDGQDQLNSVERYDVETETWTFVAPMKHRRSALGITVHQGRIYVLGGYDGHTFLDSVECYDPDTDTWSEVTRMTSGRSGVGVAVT

Binder	Kd [1] [nM]	Kd [2] [nM]
GCPPCASGCSPETGEFCWREDDCPPC (disulfide (positions not given here); not fully specified) [drp3-a]	277	–
B1	–	415
